Read-outs that look alike come from different tables or passages of the source.
Experiments:
Assay in all cases: MST
[1] = biological target: NanoTemper RED-labeled FVIIa (FVIIa-R) (human) (UniProt P08709)
[2] = biological target: NanoTemper RED-labeled FVIIa (FVIIa-R) (human) (UniProt P08709); remark: listed apart in the source
[3] = biological target: NanoTemper RED-labeled FVIIa (FVIIa-R) (human) (UniProt P08709); remark: listed apart in the source
[4] = biological target: NanoTemper RED-labeled FVIIa (FVIIa-R) (human) (UniProt P08709); remark: listed apart in the source
[5] = biological target: NanoTemper RED-labeled FVIIa (FVIIa-R) (human) (UniProt P08709); remark: listed apart in the source
[6] = biological target: NanoTemper RED-labeled FVIIa (FVIIa-R) (human) (UniProt P08709); remark: listed apart in the source
[7] = biological target: NanoTemper RED-labeled FVIIa (FVIIa-R) (human) (UniProt P08709); remark: listed apart in the source
[8] = biological target: NanoTemper RED-labeled FVIIa (FVIIa-R) (human) (UniProt P08709); remark: listed apart in the source
[9] = biological target: NanoTemper RED-labeled FVIIa (FVIIa-R) (human) (UniProt P08709); remark: listed apart in the source
[10] = biological target: NanoTemper RED-labeled FVIIa (FVIIa-R) (human) (UniProt P08709); remark: listed apart in the source
[11] = biological target: NanoTemper RED-labeled FVIIa (FVIIa-R) (human) (UniProt P08709); remark: listed apart in the source
[12] = biological target: NanoTemper RED-labeled FVIIa (FVIIa-R) (human) (UniProt P08709); remark: listed apart in the source
[13] = biological target: NanoTemper RED-labeled FVIIa (FVIIa-R) (human) (UniProt P08709); remark: listed apart in the source

Chain of UniProt P08709 (P08709 61-212, chain 1 of 2): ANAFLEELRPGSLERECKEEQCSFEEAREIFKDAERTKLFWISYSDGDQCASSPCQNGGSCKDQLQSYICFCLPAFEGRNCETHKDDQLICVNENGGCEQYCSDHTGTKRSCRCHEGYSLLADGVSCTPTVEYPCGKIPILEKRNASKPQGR
Chain of UniProt P08709 (P08709 213-466, chain 2 of 2): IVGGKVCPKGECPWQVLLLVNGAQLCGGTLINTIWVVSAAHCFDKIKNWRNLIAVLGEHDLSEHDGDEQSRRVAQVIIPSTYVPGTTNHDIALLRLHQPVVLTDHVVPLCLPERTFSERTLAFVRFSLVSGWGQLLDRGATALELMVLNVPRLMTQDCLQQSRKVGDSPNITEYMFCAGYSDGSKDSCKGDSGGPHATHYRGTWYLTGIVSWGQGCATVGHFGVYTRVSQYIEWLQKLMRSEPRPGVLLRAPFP

## gCΔ457t (soluble recombinant HSV1 glycoprotein C) (from UniProt P10228 25-511) (domain or fragment)
[1]
  Kd: 1000 nM
[2]
  Kd: 2200 nM
[3]
  Kd: 1600 nM
[4]
  Kd: 800 nM
[5]
  Kd: 2700 nM
[6]
  Kd: > 13000 nM
[7]
  Kd: > 12000 nM
[8]
  Kd: 900 nM
[9]
  Kd: 1300 nM
[10]
  Kd: 2000 nM
[11]
  Kd: 400 nM
[12]
  Kd: 600 nM
[13]
  Kd: 2900 nM

Reference: paper PMC7647453
